Assay results published in article PMC6096475, “Structure of the GH9 glucosidase/glucosaminidase from Vibrio cholerae” (Acta Crystallographica. Section F, Structural Biology …, 2018).

Test system: Cc1cc(=O)oc2cc(O[C@@H]3O[C@H](CO)[C@@H](O)[C@H](O)[C@H]3O)ccc12
Assay: purified protein
Conditions: 20 mM sodium phosphate pH 6.5, 1 µM enzyme, temperature not stated

VC0615 (Vibrio cholerae O1 biovar El Tor str. N16961)
Km: 768 µM
kcat: 0.0217 s⁻¹
